B1: Gigaxonin (Homo sapiens), Q9H2C0 (parent)
chain: MAEGSAVSDPQHAARLLRALSSFREESRFCDAHLVLDGEEIPVQKNILAAASPYIRTKLNYNPPKDDGSTYKIELEGISVMVMREILDYIFSGQIRLNEDTIQDVVQAADLLLLTDLKTLCCEFLEGCIAAENCIGIRDFALHYCLHHVHYLATEYLETHFRDVSSTEEFLELSPQKLKEVISLEKLNVGNERYVFEAVIRWIAHDTEIRKVHMKDVMSALWVSGLDSSYLREQMLNEPLVREIVKECSNIPLSQPQQGEAMLANFKPRGYSECIVTVGGEERVSRKPTAAMRCMCPLYDPNRQLWIELAPLSMPRINHGVLSAEGFLFVFGGQDENKQTLSSGEKYDPDANTWTALPPMNEARHNFGIVEIDGMLYILGGEDGEKELISMECYDIYSKTWTKQPDLTMVRKIGCYAAMKKKIYAMGGGSYGKLFESVECYDPRTQQWTAICPLKERRFGAVACGVAMELYVFGGVRSREDAQGSEMVTCKSEFYHDEFKRWIYLNDQNLCIPASSSFVYGAVPIGASIYVIGDLDTGTNYDYVREFKRSTGTWHHTKPLLPSDLRRTGCAALRIANCKLFRLQLQQGLFRIRVHSP

One assay covers variants of B1. The note with it: with uba1_human UBA1, P22314.
Sequence of uba1_human UBA1, P22314 (P22314 whole entry): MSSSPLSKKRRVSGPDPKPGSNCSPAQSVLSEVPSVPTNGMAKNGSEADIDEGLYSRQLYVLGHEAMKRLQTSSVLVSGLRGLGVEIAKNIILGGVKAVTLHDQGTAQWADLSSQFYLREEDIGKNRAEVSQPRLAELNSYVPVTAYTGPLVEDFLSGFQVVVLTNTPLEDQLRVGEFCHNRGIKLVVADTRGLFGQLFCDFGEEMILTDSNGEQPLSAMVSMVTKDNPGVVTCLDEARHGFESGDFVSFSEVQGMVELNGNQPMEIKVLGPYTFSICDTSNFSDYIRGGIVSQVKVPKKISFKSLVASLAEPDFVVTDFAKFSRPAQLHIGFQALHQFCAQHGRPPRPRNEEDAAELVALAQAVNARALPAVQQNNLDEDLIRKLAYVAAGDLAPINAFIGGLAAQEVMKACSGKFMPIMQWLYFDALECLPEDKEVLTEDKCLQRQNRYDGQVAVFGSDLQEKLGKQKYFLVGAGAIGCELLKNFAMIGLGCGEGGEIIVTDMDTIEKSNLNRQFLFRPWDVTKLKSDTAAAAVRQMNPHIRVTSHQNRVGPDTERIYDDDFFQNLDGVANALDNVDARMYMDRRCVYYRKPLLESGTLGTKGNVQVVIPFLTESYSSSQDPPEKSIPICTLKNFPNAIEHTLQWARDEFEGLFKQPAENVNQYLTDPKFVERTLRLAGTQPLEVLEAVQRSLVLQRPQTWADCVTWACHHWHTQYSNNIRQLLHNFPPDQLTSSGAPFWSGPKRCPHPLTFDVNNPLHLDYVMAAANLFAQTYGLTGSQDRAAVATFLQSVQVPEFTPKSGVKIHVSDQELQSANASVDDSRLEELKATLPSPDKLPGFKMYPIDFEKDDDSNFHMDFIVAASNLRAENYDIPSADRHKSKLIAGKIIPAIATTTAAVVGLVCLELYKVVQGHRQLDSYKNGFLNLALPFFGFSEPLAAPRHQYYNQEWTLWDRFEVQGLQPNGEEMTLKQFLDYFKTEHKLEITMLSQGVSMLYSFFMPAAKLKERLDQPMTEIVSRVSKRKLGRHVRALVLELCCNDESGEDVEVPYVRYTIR
Turning to MAEGSAVSDPQHAARLLRALSSFREESRFCDAHLVLDGEEIPVQKNILAAASPYIRTKLNYNPPKDDGSTYKIELEGISVMFMREILDYIFSGQIRLNEDTIQDVVQAADLLLLTDLKTLCCEFLEGCIAAENCIGIRDFALHYCLHHVHYLATEYLETHFRDVSSTEEFLELSPQKLKEVISLEKLNVGNERYVFEAVIRWIAHDTEIRKVHMKDVMSALWVSGLDSSYLREQMLNEPLVREIVKECSNIPLSQPQQGEAMLANFKPRGYSECIVTVGGEERVSRKPTAAMRCMCPLYDPNRQLWIELAPLSMPRINHGVLSAEGFLFVFGGQDENKQTLSSGEKYDPDANTWTALPPMNEARHNFGIVEIDGMLYILGGEDGEKELISMECYDIYSKTWTKQPDLTMVRKIGCYAAMKKKIYAMGGGSYGKLFESVECYDPRTQQWTAICPLKERRFGAVACGVAMELYVFGGVRSREDAQGSEMVTCKSEFYHDEFKRWIYLNDQNLCIPASSSFVYGAVPIGASIYVIGDLDTGTNYDYVREFKRSTGTWHHTKPLLPSDLRRTGCAALRIANCKLFRLQLQQGLFRIRVHSP [V82F], the “effect of a mutation on the interaction” value is “decreasing interaction”.

Variants of B1 are the subject of another assay. The note with it: with uba1_rat Uba1, Q5U300.
Sequence of uba1_rat Uba1, Q5U300 (Q5U300 whole entry): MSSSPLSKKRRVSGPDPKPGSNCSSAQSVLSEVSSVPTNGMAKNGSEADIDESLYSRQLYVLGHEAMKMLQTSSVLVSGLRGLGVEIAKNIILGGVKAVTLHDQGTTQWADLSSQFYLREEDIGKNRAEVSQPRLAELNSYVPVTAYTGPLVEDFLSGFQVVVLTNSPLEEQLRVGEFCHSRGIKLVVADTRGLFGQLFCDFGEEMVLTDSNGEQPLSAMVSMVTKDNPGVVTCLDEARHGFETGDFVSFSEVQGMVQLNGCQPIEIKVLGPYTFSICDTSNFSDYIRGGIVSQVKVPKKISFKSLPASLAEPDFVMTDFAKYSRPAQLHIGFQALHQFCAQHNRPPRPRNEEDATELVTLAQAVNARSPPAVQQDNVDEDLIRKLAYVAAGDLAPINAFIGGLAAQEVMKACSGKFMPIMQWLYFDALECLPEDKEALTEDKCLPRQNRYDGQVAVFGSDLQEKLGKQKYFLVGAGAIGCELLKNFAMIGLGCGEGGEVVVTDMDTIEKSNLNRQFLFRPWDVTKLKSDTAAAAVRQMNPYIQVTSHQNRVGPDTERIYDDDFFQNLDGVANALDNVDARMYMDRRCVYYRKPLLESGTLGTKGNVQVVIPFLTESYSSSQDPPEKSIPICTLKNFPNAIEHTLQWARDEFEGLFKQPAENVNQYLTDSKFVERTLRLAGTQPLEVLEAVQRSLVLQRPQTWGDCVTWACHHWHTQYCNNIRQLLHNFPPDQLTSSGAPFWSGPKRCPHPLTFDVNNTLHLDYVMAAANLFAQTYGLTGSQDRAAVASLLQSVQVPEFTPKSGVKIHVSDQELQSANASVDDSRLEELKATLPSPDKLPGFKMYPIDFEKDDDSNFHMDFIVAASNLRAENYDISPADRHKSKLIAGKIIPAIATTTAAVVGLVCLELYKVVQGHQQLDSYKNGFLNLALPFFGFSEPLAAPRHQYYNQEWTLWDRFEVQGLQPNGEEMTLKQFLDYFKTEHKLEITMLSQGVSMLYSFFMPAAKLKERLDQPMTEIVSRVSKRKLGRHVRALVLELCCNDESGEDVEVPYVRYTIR
As to MAEGSAVSDPQHAARLLRALSSFREESRFCDAHLVLDGEEIPVQKNILAAASPYIRTKLNYNPPKDDGSTYKIELEGISVMFMREILDYIFSGQIRLNEDTIQDVVQAADLLLLTDLKTLCCEFLEGCIAAENCIGIRDFALHYCLHHVHYLATEYLETHFRDVSSTEEFLELSPQKLKEVISLEKLNVGNERYVFEAVIRWIAHDTEIRKVHMKDVMSALWVSGLDSSYLREQMLNEPLVREIVKECSNIPLSQPQQGEAMLANFKPRGYSECIVTVGGEERVSRKPTAAMRCMCPLYDPNRQLWIELAPLSMPRINHGVLSAEGFLFVFGGQDENKQTLSSGEKYDPDANTWTALPPMNEARHNFGIVEIDGMLYILGGEDGEKELISMECYDIYSKTWTKQPDLTMVRKIGCYAAMKKKIYAMGGGSYGKLFESVECYDPRTQQWTAICPLKERRFGAVACGVAMELYVFGGVRSREDAQGSEMVTCKSEFYHDEFKRWIYLNDQNLCIPASSSFVYGAVPIGASIYVIGDLDTGTNYDYVREFKRSTGTWHHTKPLLPSDLRRTGCAALRIANCKLFRLQLQQGLFRIRVHSP [V82F], the “effect of a mutation on the interaction” value was “decreasing interaction”.

For the origin of these results see IntAct's records for PubMed 16227972.
